Assay results reported in article PMC9482650, “Quantitative fragmentomics allow affinity mapping of interactomes” (Nature Communications, 2022).

T1: HTRA3, P83110
T1 sequence (P83110 354-453, limits assumed, looked up): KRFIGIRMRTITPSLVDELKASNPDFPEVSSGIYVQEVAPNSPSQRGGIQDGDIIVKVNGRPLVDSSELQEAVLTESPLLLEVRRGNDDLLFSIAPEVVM

T2: MPP7, Q5T2T1
T2 sequence (Q5T2T1 134-230, limits assumed, looked up): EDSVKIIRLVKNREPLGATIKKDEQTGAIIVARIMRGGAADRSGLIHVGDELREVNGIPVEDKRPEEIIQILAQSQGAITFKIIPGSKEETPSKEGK

T3: DFNB31_2, Q9P202
T3 sequence (Q9P202 274-371, limits assumed, looked up): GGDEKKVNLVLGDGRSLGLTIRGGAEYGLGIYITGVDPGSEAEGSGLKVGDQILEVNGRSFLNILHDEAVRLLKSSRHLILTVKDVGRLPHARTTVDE

T4: MPDZ_10, O75970
T4 sequence (O75970 1624-1722, limits assumed, looked up): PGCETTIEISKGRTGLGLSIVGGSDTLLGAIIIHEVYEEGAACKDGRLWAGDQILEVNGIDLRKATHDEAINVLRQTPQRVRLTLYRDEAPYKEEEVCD

T5: PDZRN3_1, Q9UPQ7
T5 sequence (Q9UPQ7 244-349, limits assumed, looked up): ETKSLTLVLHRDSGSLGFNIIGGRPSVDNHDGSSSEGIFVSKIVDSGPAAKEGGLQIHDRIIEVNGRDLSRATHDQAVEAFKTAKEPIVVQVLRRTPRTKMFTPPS

T6: RHPN1, Q8TCX5
T6 sequence (Q8TCX5 508-602, limits assumed, looked up): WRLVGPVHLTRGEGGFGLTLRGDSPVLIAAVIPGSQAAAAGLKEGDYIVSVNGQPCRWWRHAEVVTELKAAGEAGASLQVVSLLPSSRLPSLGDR

T7: ARHGAP21, Q5T5U3
T7 sequence (Q5T5U3 45-169, limits assumed, looked up): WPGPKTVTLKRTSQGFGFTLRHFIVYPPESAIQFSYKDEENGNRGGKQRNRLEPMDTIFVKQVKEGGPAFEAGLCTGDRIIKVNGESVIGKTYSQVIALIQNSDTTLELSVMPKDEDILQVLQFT

T8: FRMPD1, Q5SYB0
T8 sequence (Q5SYB0 52-145, limits assumed, looked up): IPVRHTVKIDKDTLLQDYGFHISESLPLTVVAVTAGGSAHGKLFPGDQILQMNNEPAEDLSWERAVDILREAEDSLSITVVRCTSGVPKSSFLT

T9: SNTB1, Q13884
T9 sequence (Q13884 107-205, limits assumed, looked up): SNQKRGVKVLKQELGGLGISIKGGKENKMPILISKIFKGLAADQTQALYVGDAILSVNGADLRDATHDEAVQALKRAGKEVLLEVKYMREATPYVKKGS

T10: MPDZ_5, O75970
T10 sequence (O75970 695-796, limits assumed, looked up): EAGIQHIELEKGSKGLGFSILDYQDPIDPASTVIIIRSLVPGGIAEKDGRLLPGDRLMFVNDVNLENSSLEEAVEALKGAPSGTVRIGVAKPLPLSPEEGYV

T11: LRRC7, Q96NW7
T11 sequence (Q96NW7 1440-1537, limits assumed, looked up): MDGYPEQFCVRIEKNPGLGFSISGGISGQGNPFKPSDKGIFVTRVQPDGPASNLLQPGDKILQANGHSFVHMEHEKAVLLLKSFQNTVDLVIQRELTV

B1: MCC, P23508 (peptide)
chain: SRPHTNETSL
B2: FKBP4, Q02790 (peptide)
chain: GSQSQVETEA

molecular target: DLG4_1, P78352; assay: holdup assay; set-up: key: below the threshold = too weak to quantify, mostly under pKd 3.1 to 4; conditions: plain residues with an end cap or a label only (N-terminal biotin on a linker: ado-ado)
Sequence (P78352 62-152): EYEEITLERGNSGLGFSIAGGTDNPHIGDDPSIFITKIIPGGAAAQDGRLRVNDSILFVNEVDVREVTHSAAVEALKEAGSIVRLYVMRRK

Row | Binder | pKd
1 | B1 | below the threshold
2 | B2 | below the threshold

molecular target: T1, HTRA3, P83110; assay: holdup assay; set-up: key: below the threshold = too weak to quantify, mostly under pKd 3.1 to 4; conditions: plain residues with an end cap or a label only (N-terminal biotin on a linker: ado-ado)

Row | Binder | pKd
3 | B1 | below the threshold
4 | B2 | below the threshold

molecular target: PDLIM1, O00151; assay: holdup assay; set-up: key: below the threshold = too weak to quantify, mostly under pKd 3.1 to 4; conditions: plain residues with an end cap or a label only (N-terminal biotin on a linker: ado-ado)
Sequence (O00151 1-87): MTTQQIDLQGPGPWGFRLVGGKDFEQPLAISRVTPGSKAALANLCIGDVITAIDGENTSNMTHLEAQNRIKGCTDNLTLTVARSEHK

Row | Binder | pKd
5 | B1 | below the threshold
6 | B2 | below the threshold

molecular target: SCRIB_1, Q14160; assay: holdup assay; set-up: key: below the threshold = too weak to quantify, mostly under pKd 3.1 to 4; conditions: plain residues with an end cap or a label only (N-terminal biotin on a linker: ado-ado)
Sequence (Q14160 718-814): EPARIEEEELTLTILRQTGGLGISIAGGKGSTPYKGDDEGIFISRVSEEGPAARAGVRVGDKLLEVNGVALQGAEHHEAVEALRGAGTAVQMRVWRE

Row | Binder | pKd
7 | B1 | 5.26
8 | B2 | below the threshold

molecular target: T2, MPP7, Q5T2T1; assay: holdup assay; set-up: key: below the threshold = too weak to quantify, mostly under pKd 3.1 to 4; conditions: plain residues with an end cap or a label only (N-terminal biotin on a linker: ado-ado)

Row | Binder | pKd
9 | B1 | below the threshold
10 | B2 | below the threshold

molecular target: T3, DFNB31_2, Q9P202; assay: holdup assay; set-up: key: below the threshold = too weak to quantify, mostly under pKd 3.1 to 4; conditions: plain residues with an end cap or a label only (N-terminal biotin on a linker: ado-ado)

Row | Binder | pKd
11 | B1 | below the threshold
12 | B2 | below the threshold

molecular target: T4, MPDZ_10, O75970; assay: holdup assay; set-up: key: below the threshold = too weak to quantify, mostly under pKd 3.1 to 4; conditions: plain residues with an end cap or a label only (N-terminal biotin on a linker: ado-ado)

Row | Binder | pKd
13 | B1 | below the threshold
14 | B2 | below the threshold

molecular target: SCRIB_3, Q14160; assay: holdup assay; set-up: key: below the threshold = too weak to quantify, mostly under pKd 3.1 to 4; conditions: plain residues with an end cap or a label only (N-terminal biotin on a linker: ado-ado)
Sequence (Q14160 999-1103): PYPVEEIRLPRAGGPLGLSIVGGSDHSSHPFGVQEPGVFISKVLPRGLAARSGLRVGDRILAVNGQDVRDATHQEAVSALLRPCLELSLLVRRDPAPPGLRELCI

Row | Binder | pKd
15 | B1 | 5.13
16 | B2 | 4.04

molecular target: DLG2_3, Q15700; assay: holdup assay; set-up: key: below the threshold = too weak to quantify, mostly under pKd 3.1 to 4; conditions: plain residues with an end cap or a label only (N-terminal biotin on a linker: ado-ado)

Row | Binder | pKd
17 | B1 | 3.95
18 | B2 | 3.82

molecular target: T5, PDZRN3_1, Q9UPQ7; assay: holdup assay; set-up: key: below the threshold = too weak to quantify, mostly under pKd 3.1 to 4; conditions: plain residues with an end cap or a label only (N-terminal biotin on a linker: ado-ado)

Row | Binder | pKd
19 | B1 | 4.99
20 | B2 | below the threshold

molecular target: T6, RHPN1, Q8TCX5; assay: holdup assay; set-up: key: below the threshold = too weak to quantify, mostly under pKd 3.1 to 4; conditions: plain residues with an end cap or a label only (N-terminal biotin on a linker: ado-ado)

Row | Binder | pKd
21 | B1 | 4.64
22 | B2 | 3.77

molecular target: T7, ARHGAP21, Q5T5U3; assay: holdup assay; set-up: key: below the threshold = too weak to quantify, mostly under pKd 3.1 to 4; conditions: plain residues with an end cap or a label only (N-terminal biotin on a linker: ado-ado)

Row | Binder | pKd
23 | B1 | 4.01
24 | B2 | below the threshold

molecular target: T8, FRMPD1, Q5SYB0; assay: holdup assay; set-up: key: below the threshold = too weak to quantify, mostly under pKd 3.1 to 4; conditions: plain residues with an end cap or a label only (N-terminal biotin on a linker: ado-ado)

Row | Binder | pKd
25 | B1 | below the threshold
26 | B2 | below the threshold

molecular target: IL16_1, Q14005; assay: holdup assay; set-up: key: below the threshold = too weak to quantify, mostly under pKd 3.1 to 4; conditions: plain residues with an end cap or a label only (N-terminal biotin on a linker: ado-ado)
Sequence (Q14005 210-306): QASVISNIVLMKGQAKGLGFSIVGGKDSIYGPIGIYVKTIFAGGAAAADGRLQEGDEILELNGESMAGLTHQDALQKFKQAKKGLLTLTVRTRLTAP

Row | Binder | pKd
27 | B1 | below the threshold
28 | B2 | below the threshold

molecular target: GORASP2, Q9H8Y8; assay: holdup assay; set-up: key: below the threshold = too weak to quantify, mostly under pKd 3.1 to 4; conditions: plain residues with an end cap or a label only (N-terminal biotin on a linker: ado-ado)

Row | Binder | pKd
29 | B1 | below the threshold
30 | B2 | below the threshold

molecular target: Inadl_4, Q8NI35; assay: holdup assay; set-up: key: below the threshold = too weak to quantify, mostly under pKd 3.1 to 4; conditions: plain residues with an end cap or a label only (N-terminal biotin on a linker: ado-ado)
Sequence (Q8NI35 547-651): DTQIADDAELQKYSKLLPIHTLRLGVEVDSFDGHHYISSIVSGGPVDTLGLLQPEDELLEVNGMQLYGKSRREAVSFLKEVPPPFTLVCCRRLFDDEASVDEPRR

Row | Binder | pKd
31 | B1 | below the threshold
32 | B2 | below the threshold

molecular target: Inadl_3, Q8NI35; assay: holdup assay; set-up: key: below the threshold = too weak to quantify, mostly under pKd 3.1 to 4; conditions: plain residues with an end cap or a label only (N-terminal biotin on a linker: ado-ado)
Sequence (Q8NI35 359-469): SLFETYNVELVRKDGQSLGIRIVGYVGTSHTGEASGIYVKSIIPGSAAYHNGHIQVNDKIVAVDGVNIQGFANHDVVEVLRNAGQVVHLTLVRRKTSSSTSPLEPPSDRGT

Row | Binder | pKd
33 | B1 | below the threshold
34 | B2 | below the threshold

molecular target: GRIP2_6, Q9C0E4; assay: holdup assay; set-up: key: below the threshold = too weak to quantify, mostly under pKd 3.1 to 4; conditions: plain residues with an end cap or a label only (N-terminal biotin on a linker: ado-ado)
Sequence (Q9C0E4 648-740): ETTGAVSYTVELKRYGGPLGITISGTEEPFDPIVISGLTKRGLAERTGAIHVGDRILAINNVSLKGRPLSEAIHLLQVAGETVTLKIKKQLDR

Row | Binder | pKd
35 | B1 | below the threshold
36 | B2 | below the threshold

molecular target: T9, SNTB1, Q13884; assay: holdup assay; set-up: key: below the threshold = too weak to quantify, mostly under pKd 3.1 to 4; conditions: plain residues with an end cap or a label only (N-terminal biotin on a linker: ado-ado)

Row | Binder | pKd
37 | B1 | 4.67
38 | B2 | below the threshold

molecular target: GORASP1, Q9BQQ3; assay: holdup assay; set-up: key: below the threshold = too weak to quantify, mostly under pKd 3.1 to 4; conditions: plain residues with an end cap or a label only (N-terminal biotin on a linker: ado-ado)
Sequence (Q9BQQ3 1-208): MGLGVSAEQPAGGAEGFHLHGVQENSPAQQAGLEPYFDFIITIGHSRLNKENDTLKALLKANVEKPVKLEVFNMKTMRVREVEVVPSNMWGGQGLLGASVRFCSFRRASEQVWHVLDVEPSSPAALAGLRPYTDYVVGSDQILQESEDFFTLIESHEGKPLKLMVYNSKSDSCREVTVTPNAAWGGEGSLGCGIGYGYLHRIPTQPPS

Row | Binder | pKd
39 | B1 | below the threshold
40 | B2 | below the threshold

molecular target: FRMPD2_2, Q68DX3; assay: holdup assay; set-up: key: below the threshold = too weak to quantify, mostly under pKd 3.1 to 4; conditions: plain residues with an end cap or a label only (N-terminal biotin on a linker: ado-ado)
Sequence (Q68DX3 944-1038): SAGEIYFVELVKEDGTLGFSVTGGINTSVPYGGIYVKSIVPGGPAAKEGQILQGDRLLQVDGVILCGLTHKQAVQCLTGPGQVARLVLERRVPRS

Row | Binder | pKd
41 | B1 | below the threshold
42 | B2 | below the threshold

molecular target: NHERF4_1, Q86UT5-2; assay: holdup assay; set-up: key: below the threshold = too weak to quantify, mostly under pKd 3.1 to 4; conditions: plain residues with an end cap or a label only (N-terminal biotin on a linker: ado-ado)
Sequence (Q86UT5 other isoform, or with tags, fused parts or gaps): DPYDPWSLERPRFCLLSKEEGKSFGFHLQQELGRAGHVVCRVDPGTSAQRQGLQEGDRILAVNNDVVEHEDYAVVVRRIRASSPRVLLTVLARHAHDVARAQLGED

Row | Binder | pKd
43 | B1 | 4.12
44 | B2 | 3.97

molecular target: TJP1_2, Q07157; assay: holdup assay; set-up: key: below the threshold = too weak to quantify, mostly under pKd 3.1 to 4; conditions: plain residues with an end cap or a label only (N-terminal biotin on a linker: ado-ado)
Sequence (Q07157 181-274): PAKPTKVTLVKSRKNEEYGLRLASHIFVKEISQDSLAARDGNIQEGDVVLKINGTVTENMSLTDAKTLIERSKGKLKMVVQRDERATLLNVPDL

Row | Binder | pKd
45 | B1 | below the threshold
46 | B2 | below the threshold

molecular target: T10, MPDZ_5, O75970; assay: holdup assay; set-up: key: below the threshold = too weak to quantify, mostly under pKd 3.1 to 4; conditions: plain residues with an end cap or a label only (N-terminal biotin on a linker: ado-ado)

Row | Binder | pKd
47 | B1 | below the threshold
48 | B2 | below the threshold

molecular target: Inadl_1, Q8NI35; assay: holdup assay; set-up: key: below the threshold = too weak to quantify, mostly under pKd 3.1 to 4; conditions: plain residues with an end cap or a label only (N-terminal biotin on a linker: ado-ado)
Sequence (Q8NI35 113-229): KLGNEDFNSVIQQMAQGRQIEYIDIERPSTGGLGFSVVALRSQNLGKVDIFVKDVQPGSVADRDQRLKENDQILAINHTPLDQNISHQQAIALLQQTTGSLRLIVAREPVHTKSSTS

Row | Binder | pKd
49 | B1 | below the threshold
50 | B2 | below the threshold

molecular target: NHERF4_4, Q86UT5; assay: holdup assay; set-up: key: below the threshold = too weak to quantify, mostly under pKd 3.1 to 4; conditions: plain residues with an end cap or a label only (N-terminal biotin on a linker: ado-ado)
Sequence (Q86UT5 464-550): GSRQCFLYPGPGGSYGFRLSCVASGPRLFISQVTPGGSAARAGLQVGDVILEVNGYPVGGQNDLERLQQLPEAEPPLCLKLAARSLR

Row | Binder | pKd
51 | B1 | below the threshold
52 | B2 | below the threshold

molecular target: T11, LRRC7, Q96NW7; assay: holdup assay; set-up: key: below the threshold = too weak to quantify, mostly under pKd 3.1 to 4; conditions: plain residues with an end cap or a label only (N-terminal biotin on a linker: ado-ado)

Row | Binder | pKd
53 | B1 | below the threshold
54 | B2 | below the threshold
